Ends that are not written are not given here.
T1: Sis1_(1–81), J-domain of Sis1 (residues 1–81) (S. cerevisiae, UniProt P25294 1-81)
T1 construct: Sis1, class B J-domain protein of S. cerevisiae, residues 1-81: J-domain (1-72) and part of the GF region (73-81); 15N-labelled for HSQC, 13C/15N-labelled for the structure; also called 15N-Sis1_(1–81)
T1 sequence (looked up): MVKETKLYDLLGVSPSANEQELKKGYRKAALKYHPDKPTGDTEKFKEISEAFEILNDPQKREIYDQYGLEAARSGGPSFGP

T2: full-length Sis1 (residues 1–352), Sis1_(1–352) (S. cerevisiae, UniProt P25294 1-352)
T2 construct: Sis1, class B J-domain protein of S. cerevisiae, residues 1-352 (352 residues long); J-domain 1-72, GF 73-121, GM 122-178, CTDI 179-257, CTDII 258-335, dimerization domain 336-352; 15N- or 2H/15N-labelled; also called 15N-Sis1_(1–352); 2H-15N-Sis1_(1–352)
T2 sequence (looked up): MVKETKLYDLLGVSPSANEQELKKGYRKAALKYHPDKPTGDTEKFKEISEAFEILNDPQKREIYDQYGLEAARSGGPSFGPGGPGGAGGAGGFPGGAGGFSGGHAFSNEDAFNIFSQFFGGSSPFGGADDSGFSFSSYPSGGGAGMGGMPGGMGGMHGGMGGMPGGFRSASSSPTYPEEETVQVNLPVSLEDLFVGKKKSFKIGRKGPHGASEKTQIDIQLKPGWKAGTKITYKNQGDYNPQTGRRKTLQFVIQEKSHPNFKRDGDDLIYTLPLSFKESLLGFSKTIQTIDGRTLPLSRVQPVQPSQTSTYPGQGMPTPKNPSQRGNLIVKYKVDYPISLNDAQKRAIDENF


Experiments:
Conditions in all cases: both partners purified
[1] = target: T1, Sis1_(1–81), J-domain of Sis1 (residues …); experiment: NMR titration; paramagnetic relaxation enhancement: 15N-Sis1(1-81) titrated with TEMPO-labeled …, 1H-15N HSQC at 900 MHz; diamagnetic sample after reduction with 3 mM ascorbic acid; intensity ratio Ipara/Idia
[2] = target: T2, full-length Sis1 (residues 1–352), …; experiment: NMR titration; paramagnetic relaxation enhancement: Sis1(1-352) with TEMPO-labeled EEVD peptide, TROSY spectra, paramagnetic against diamagnetic (reduced with ascorbate) intensity ratio
[3] = target: T2, full-length Sis1 (residues 1–352), …; experiment: NMR titration; 1H-15N TROSY of 0.3 mM 15N-Sis1(1-352) free and with GPTIEEVD (1:4 protein:peptide), CSP; 25 mM Tris-HCl pH 7.5, 200 mM NaCl, 10% D2O, 303 K

binding result [1] | binding result [2] | binding result [3] | Binder
binds | binds | – | C(4‑maleimide‑TEMPO)GPTIEEVD (N-terminal cysteine that carries the spin label; also called spin-labeled EEVD; paramagnetic EEVD peptide; source: synthetic peptide (GenOne Biotechnologies), labelled with 4-maleimide-TEMPO, HPLC (C18) purified) [TEMPO-labeled CGPTIEEVD peptide (TEMPO-EEVD)]
– | – | binds | GPTIEEVD (also called Ssa1-EEVD; source: synthetic peptide (GenOne Biotechnologies, Rio de Janeiro)) [GPTIEEVD peptide (EEVD peptide, C-terminal motif of HSP70/Ssa1)]

— article PMC11722011, “NMR Studies on the Structure of Yeast Sis1 and the Dynamics of Its Interaction with Ssa1-EEVD” (Molecules, 2024)
